From paper PMC9561280

Target: T1, Fur (Pseudomonas aeruginosa PA14) (UniProt Q03456)
T1 sequence: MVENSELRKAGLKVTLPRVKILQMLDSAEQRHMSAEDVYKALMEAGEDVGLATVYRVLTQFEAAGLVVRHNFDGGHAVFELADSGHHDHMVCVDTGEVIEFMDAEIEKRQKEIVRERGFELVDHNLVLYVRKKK
Experiment: EMSA
Conditions: 25 mM Tris-HCl pH 7.5, 150 mM NaCl, 20 ul, 4 C 30 min; 10% PAGE in 0.5x TBE; no metal stated

In the case of “CTGGTCGAGTCGATGATGGTGGCCGGGCGCTGAGGCCGGGTTTCCCTCTATAAAACGCCAGCGCTCGTCGCTGGCGTTTTCGTTTCCGCCTGTTCAATTGTCCGCCTCTATGGGGACCATGCTTGTCTTTTGCCAAGAAGAAAACAATAATCAATCTCATTATCGTCTGGTGAGGTTGCC (double strand) [PfagA (Ppa4471)]”, the binding is reported as “binds”.
